Assay [1] deals with T1, hCD200R1-iso4-Ref ECD (Homo sapiens, UniProt Q8TD46).
For assay [2], the target named is T2, recombinant MfCD200R1 ECD (Macaca fascicularis, UniProt G7NZT0). The assay can be described thus: SPR. For orientation: SPR reads the build-up and loss of mass on a sensor chip optically.
In assay [3] the target is WT hCD200R1-iso4-Ref expressed on Expi293 cells (Homo sapiens, UniProt Q8TD46, strain). The assay can be described thus: flow cytometry on cells.
In assay [4] the target is T1, hCD200R1-iso4-Ref ECD. The assay can be described thus: SPR.
The target in assay [5] is T2, recombinant MfCD200R1 ECD. The assay can be described thus: SPR. The source holds these as a separate data set.

Like-named read-outs stand apart in the source and are kept apart here.

In general, Kd refers to the free concentration of one partner at which half of the binding sites on the other are occupied at equilibrium, for simple one-to-one binding.

T1 sequence (Q8TD46 29-265): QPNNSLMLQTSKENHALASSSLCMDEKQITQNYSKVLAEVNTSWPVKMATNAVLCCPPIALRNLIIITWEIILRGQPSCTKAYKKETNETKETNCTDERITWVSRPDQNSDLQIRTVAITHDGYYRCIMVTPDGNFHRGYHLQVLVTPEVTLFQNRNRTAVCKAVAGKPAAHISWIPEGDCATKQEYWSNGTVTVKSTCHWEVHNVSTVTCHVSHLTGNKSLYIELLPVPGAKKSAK
Sequence of WT hCD200R1-iso4-Ref expressed on Expi293 cells (Q8TD46 whole entry, looked up, change not shown, the tested form may be a part): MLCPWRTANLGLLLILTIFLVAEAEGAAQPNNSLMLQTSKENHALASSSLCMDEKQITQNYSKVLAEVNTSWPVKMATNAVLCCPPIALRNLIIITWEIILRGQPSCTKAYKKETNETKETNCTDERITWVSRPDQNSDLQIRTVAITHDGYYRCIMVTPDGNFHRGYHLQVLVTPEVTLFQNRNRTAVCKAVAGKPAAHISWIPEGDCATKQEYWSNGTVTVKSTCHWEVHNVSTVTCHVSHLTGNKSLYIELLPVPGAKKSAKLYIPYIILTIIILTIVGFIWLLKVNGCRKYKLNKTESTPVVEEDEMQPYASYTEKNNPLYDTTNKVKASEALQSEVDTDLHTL

B1: 23ME-00611 (antibody, V domains shown)
VH: EVQLQESGPGLVKPSETLSLTCTVSGFSLTNYRVSWVRQPPGKGLEWLGVMYAGGGTNYNSVFKSRLTISKDNSKNQVSLKLSSVTAADTAVYYCARERPLTGVMDNWGQGTLVTVSS
VL: DIVLTQSPDSLAVSLGERATINCRASESVDYSGNSFMHWFQQKPGQPPKLLIYRASNLESGIPDRFSGSGSRTDFTLTISSLQAEDVAVYYCHQSNWDPPTFGGGTKVEIK
As for B1, the dissociation constant (Kd) turned out to be 1 nM with hCD200R1-iso4-Ref ECD [1] and 2 nM in assay [2].

B2: 23ME-00610 (antibody, V domains shown)
VH: EVQLQESGPGLVKPSETLSLTCTVSGFSLTNYAVSWVRQPPGKGLEWLGVMWAGGGTNYNSVFKSRLTISKDNSKNQVSLKLSSVTAADTAVYYCARERPLTGVMDYWGQGTLVTVSS
VL: DIVLTQSPDSLAVSLGERATINCRASESVDYSGNSFMHWFQQKPGQPPKLLIYRASNLESGIPDRFSGSGSRTDFTLTISSLQAEDVAVYYCHQSNEDPPTFGGGTKVEIK
B2: the binding result in assay [3] is reported as “binds”; in assay [2], “no binding (tested: up to 200 nM)”. Also, the affinity with hCD200R1-iso4-Ref ECD [4], expressed as Kd, was 0.1 nM.

B3: 23ME-00610_A33R (antibody, V domains shown)
VH: EVQLQESGPGLVKPSETLSLTCTVSGFSLTNYRVSWVRQPPGKGLEWLGVMWAGGGTNYNSVFKSRLTISKDNSKNQVSLKLSSVTAADTAVYYCARERPLTGVMDYWGQGTLVTVSS
VL: DIVLTQSPDSLAVSLGERATINCRASESVDYSGNSFMHWFQQKPGQPPKLLIYRASNLESGIPDRFSGSGSRTDFTLTISSLQAEDVAVYYCHQSNEDPPTFGGGTKVEIK
Turning to B3, the binding result in assay [5] is “binds”.

B4: 23ME-00610_E93W (antibody, V domains shown)
VH: EVQLQESGPGLVKPSETLSLTCTVSGFSLTNYAVSWVRQPPGKGLEWLGVMWAGGGTNYNSVFKSRLTISKDNSKNQVSLKLSSVTAADTAVYYCARERPLTGVMDYWGQGTLVTVSS
VL: DIVLTQSPDSLAVSLGERATINCRASESVDYSGNSFMHWFQQKPGQPPKLLIYRASNLESGIPDRFSGSGSRTDFTLTISSLQAEDVAVYYCHQSNWDPPTFGGGTKVEIK
On to B4, for which the binding result in assay [5] is reported as “binds”.

These data come from paper PMC11485749 (mAbs, 2024).
